Measurements reported in US20260274928A1 (VIR BIOTECHNOLOGY, published 2026).
Substitutions are numbered along the chain they refer to. Like-named read-outs stand apart in the source and are kept apart here.

B1: S2V29-v1.2 (antibody, V domains shown)
VH: EVQLVESGGSVVQPGRALRLSCAASGITFSSFGMYWVRQAPGKGLEWLGVIAYDGSNTYYADSVKGRFTISRDNSKNTLYLQMNSLRIEDTAVYYCAKDYYPLLSYYYGLDVWGQGTTVTVSS
VL: QSVLTQPRSVSGSPGQSVTISCTGTSSDVGAYNYVSWYQQHPGKAPKFMIYDVDQRPSGVPDRFSGSKSGNTASLIISGLQAEDEADYYCSSYAGSYIWVFGGGTQLTVL
B2: S2V29-v37.2 (antibody, V domains shown)
VH: B1 VH with V50Y, N57D
VL: B1 VL
B3: S3L17 (antibody, V domains shown)
VH: EVQLVESGGGLVQPGGSLRLSCAASEIIVSSNYMNWVRQAPGKGLEWVSVIYAGGSTFYADSVRGRFTISRDNSKNTLYLQMNSLRPDDTAIYYCARDLGPWGMDVWGQGTTVTVSS
VL: DIQMTQSPSSLSASVGDRVAITCRASHGINNDLAWYQQKPGKVPKLLIYAASTLQSGVPSRFSGSGSGTDFTLTISSLQPEDVATYYCQHYSSDPRFTFGPGTKVDIK

Columns and labels:
[1] = molecular target: SARS-CoV-2 BQ.1.1 S glycoprotein (SARS-CoV-2 BQ.1.1); experiment: cell-based or functional assay
[2] = molecular target: SARS-CoV-2 XBB.1.5 S glycoprotein (SARS-CoV-2 XBB.1.5); experiment: cell-based or functional assay
[3] = molecular target: SARS-CoV-2 BA.5 S glycoprotein (SARS-CoV-2 BA.5); experiment: cell-based or functional assay
[4] = molecular target: SARS-CoV-2 BA.1 RBD (SARS-CoV-2 BA.1, UniProt P0DTC2 328-531); experiment: RBD binding affinity (SPR, see Example 5)
[5] = molecular target: SARS-CoV-2 BQ.1.1 S glycoprotein (SARS-CoV-2 BQ.1.1); experiment: cell-based or functional assay; remark: listed apart in the source
[6] = molecular target: SARS-CoV-2 BQ.1.1 S glycoprotein (SARS-CoV-2 BQ.1.1); experiment: cell-based or functional assay; remark: listed apart in the source

Row | Binder | IC50 [1] [ng/mL] | IC50 [2] [ng/mL] | IC50 [3] [ng/mL] | Kd [4] [nM] | FC IC50 par/IC50 Var [5] [fold] | IC50 [5] [ng/mL] | IC50 [6] [ng/mL] | FC vs S2V29-v1.2 [1] [fold] | FC vs S2V29-v1.2 [3] [fold]
1 | B1 | 9 | 5.2 | 2.6 | 0.05 | – | – | – | – | –
2 | B2 | 5.6 | – | 2.1 | 0.39 | 1.4 | 5.6 | 5 | 1.6 | 1.2
3 | B3 | – | – | – | 0.08 | – | – | – | – | –
